For experiment [1], the target named is T1, rHuman Erythropoietin R/Fc Chimera, CF (R&D Systems Cat#963-ER) (human, UniProt P19235 25-250).
T1 construct: Bought recombinant protein; also called EPO R/Fc; Epo R; Fc part of the bought chimera not given
T1 sequence (looked up): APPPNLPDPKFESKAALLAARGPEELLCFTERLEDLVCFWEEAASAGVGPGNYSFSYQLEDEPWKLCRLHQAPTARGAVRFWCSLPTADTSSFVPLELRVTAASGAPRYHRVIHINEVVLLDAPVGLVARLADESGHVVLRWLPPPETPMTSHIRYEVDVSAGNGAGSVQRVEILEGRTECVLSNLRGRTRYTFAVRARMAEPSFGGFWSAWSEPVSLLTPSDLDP
The experiment is described as follows: Multispot ECL (MSD), antigen spotted on plate, Fab 36 nM; blank spot 413.

Experiment [2] addresses T2, rHuman ErbB2/Fc Chimera, CF (R&D Systems Cat#1129-ER) (human, UniProt P04626 23-652).
T2 construct: Bought recombinant protein; also called human epidermal growth factor 2 receptor (ErbB2); Fc part of the bought chimera not given
The description is as above.

In experiment [3] the target is T3, rHuman HGF R/c-MET/Fc Chimera, CF (R&D Systems Cat#358-MT/CF) (human, UniProt P08581 25-932).
T3 construct: Bought recombinant protein; also called HGF R/Fc; hepatocyte growth factor receptor (HGF R/c-Met); Fc part of the bought chimera not given
The experiment is described as above.

The target of experiment [4] is T4, rHuman CD44/Fc Chimera, CF (R&D Systems Cat#3660-CD) (human, UniProt P16070 21-220).
T4 construct: Bought recombinant protein; Fc part of the bought chimera not given
The description is as above.

For experiment [5], the target named is T5, rHuman IGF-1 sR, CF (R&D Systems Cat#391-GR) (human, UniProt P08069 31-932).
T5 construct: Bought recombinant soluble receptor; also called insulin-like growth factor-1 soluble receptor
The description is as above.

Experiment [6] concerns the target T6, rHuman P-Cadherin/Fc Chimera, CF (R&D Systems Cat#861-PC) (human, UniProt P22223 108-654).
T6 construct: Bought recombinant protein; Fc part of the bought chimera not given
Described as above.

The target of experiment [7] is T1, rHuman Erythropoietin R/Fc Chimera, CF …. In words: Multispot ECL (MSD), antigen spotted on plate, Fab 360 nM; blank spot 462.
In experiment [8] the target is T2, rHuman ErbB2/Fc Chimera, CF (R&D …). Described as above.
The target in experiment [9] is T3, rHuman HGF R/c-MET/Fc Chimera, CF (R&D …). Described as above.
The target in experiment [10] is T4, rHuman CD44/Fc Chimera, CF (R&D Systems …). Described as above.
Experiment [11] has as its target T5, rHuman IGF-1 sR, CF (R&D Systems …). Described as above.
Experiment [12] has as its target T6, rHuman P-Cadherin/Fc Chimera, CF (R&D …). Described as above.
Experiment [13] deals with T7, rHuman ErbB2/Fc Chimera, CF (R&D Systems Cat#1129-ER) (human, UniProt P04626 23-652).
T7 construct: Bought recombinant protein; also called human epidermal growth factor 2 receptor; Fc part of the bought chimera not given
The experiment is described as follows: ECL multispot (MSD), 20 nM Fab.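 Note: purified Fab binding to antigens on multispot plates, read by electrochemiluminescence with a TAG-labelled detection antibody, 1 h Fab incubation at 20 °C, signal expressed relative to each well's blank.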

For experiment [14], the target named is T8, rHuman EGF R/Fc Chimera, CF (R&D Systems Cat#344-ER) (human, UniProt P00533 25-645).
T8 construct: Bought recombinant protein; also called epidermal growth factor receptor; Fc part of the bought chimera not given
In words: ECL multispot (MSD), 20 nM Fab.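 Note: purified Fab binding to antigens on multispot plates, read by electrochemiluminescence with a TAG-labelled detection antibody, 1 h Fab incubation at 20 °C, signal expressed relative to each well's blank.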

For experiment [15], the target named is T9, rHuman HGF R/c-MET/Fc Chimera, CF (R&D Systems Cat#358-MT/CF) (human, UniProt P08581 25-932).
T9 construct: Bought recombinant protein; also called HGF R/Fc; hepatocyte growth factor receptor; Fc part of the bought chimera not given
The experiment is described as follows: ECL multispot (MSD), 20 nM Fab.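 Note: purified Fab binding to antigens on multispot plates, read by electrochemiluminescence with a TAG-labelled detection antibody, 1 h Fab incubation at 20 °C, signal expressed relative to each well's blank.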

The target of experiment [16] is T10, rHuman Notch-1/Fc Chimera, CF (R&D Systems Cat#3647-TK) (human, UniProt P46531 19-526).
T10 construct: Bought recombinant protein; Fc part of the bought chimera not given
The experiment is described as follows: ECL multispot (MSD), 20 nM Fab.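 Note: purified Fab binding to antigens on multispot plates, read by electrochemiluminescence with a TAG-labelled detection antibody, 1 h Fab incubation at 20 °C, signal expressed relative to each well's blank.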

Experiment [17] deals with T11, rHuman CD44/Fc Chimera, CF (R&D Systems Cat#3660-CD) (human, UniProt P16070 21-220).
T11 construct: Bought recombinant protein; Fc part of the bought chimera not given
In words: ECL multispot (MSD), 20 nM Fab.

Experiment [18] deals with T12, rHuman IGF-1 sR, (IGF-1 sR), CF (R&D Systems Cat#391-GR) (human, UniProt P08069 31-932).
T12 construct: Bought recombinant soluble receptor; also called insulin-like growth factor-1 soluble receptor
The experiment is described as follows: ECL multispot (MSD), 20 nM Fab.

The target in experiment [19] is T13, rHuman P-Cadherin/Fc Chimera, CF (R&D Systems Cat#861-PC) (human, UniProt P22223 108-654).
T13 construct: Bought recombinant protein; Fc part of the bought chimera not given
The experiment is described as follows: ECL multispot (MSD), 20 nM Fab.

Experiment [20] concerns the target T14, rHuman Erythropoietin R/Fc Chimera, CF (R&D Systems Cat#963-ER) (human, UniProt P19235 25-250).
T14 construct: Bought recombinant protein; also called EPO R; EPO R/Fc; Fc part of the bought chimera not given
T14 sequence (looked up): T1 sequence (looked up)
In words: ECL multispot (MSD), 20 nM Fab.

For experiment [21], the target named is T15, Recombinant Human DLL4 (R&D Systems Cat#1506-D4/CF) (human, UniProt Q9NR61 27-524).
T15 construct: Bought recombinant protein; also called delta-like protein 4; rHuman DLL4
The experiment is described as follows: ECL multispot (MSD), 20 nM Fab.

Experiment [22] concerns the target T16, rHuman ErbB2/Fc Chimera, CF (R&D Systems Cat#1129-ER) (human, UniProt P04626 23-652).
T16 construct: Bought recombinant protein; also called human epidermal growth factor 2 receptor; Fc part of the bought chimera not given
The experiment is described as follows: ECL multispot (MSD) binding assay, antigens spotted on plate, 20 nM Fab.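 Note: fab incubated 1 h at 20 °C on antigen-spotted wells, bound Fab detected by TAG-labelled antibody, ratio of 4 or more over blank counted as a hit.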

The target of experiment [23] is T17, rHuman EGF R/Fc Chimera, CF (R&D Systems Cat#344-ER) (human, UniProt P00533 25-645).
T17 construct: Bought recombinant protein; also called epidermal growth factor receptor; Fc part of the bought chimera not given
The experiment is described as above.

Experiment [24] has as its target T18, rHuman HGF R/c-MET/Fc Chimera, CF (R&D Systems Cat#358-MT/CF) (human, UniProt P08581 25-932).
T18 construct: Bought recombinant protein; also called HGF R/Fc; hepatocyte growth factor receptor; Fc part of the bought chimera not given
The experiment is described as above.

The target in experiment [25] is T19, rHuman Notch-1/Fc Chimera, CF (R&D Systems Cat#3647-TK) (human, UniProt P46531 19-526).
T19 construct: Bought recombinant protein; Fc part of the bought chimera not given
Described as above.

The target of experiment [26] is T20, rHuman CD44/Fc Chimera, CF (R&D Systems Cat#3660-CD) (human, UniProt P16070 21-220).
T20 construct: Bought recombinant protein; Fc part of the bought chimera not given
Described as above.

The target in experiment [27] is T21, rHuman IGF-1 sR, (IGF-1 sR), CF (R&D Systems Cat#391-GR) (human, UniProt P08069 31-932).
T21 construct: Bought recombinant soluble receptor; The column head prints only 'IGF-1'; also called insulin-like growth factor-1 soluble receptor
The description is as above.

Experiment [28] has as its target T22, rHuman P-Cadherin/Fc Chimera, CF (R&D Systems Cat#861-PC) (human, UniProt P22223 108-654).
T22 construct: Bought recombinant protein; Fc part of the bought chimera not given
The description is as above.

The target of experiment [29] is T23, rHuman Erythropoietin R/Fc Chimera, CF (R&D Systems Cat#963-ER) (human, UniProt P19235 25-250).
T23 construct: Bought recombinant protein; also called EPO R; Epo R; Fc part of the bought chimera not given
T23 sequence (looked up): T1 sequence (looked up)
The experiment is described as above.

Experiment [30] deals with T24, Recombinant Human DLL4 (R&D Systems Cat#1506-D4/CF) (human, UniProt Q9NR61 27-524).
T24 construct: Bought recombinant protein; also called delta-like protein 4; rHuman DLL4
The experiment is described as above.

B1: Fab VH4-28_IGHD7-27*01_IGHJ1*01 & L2_IGKJ1*01 (Fab, V domains shown)
VH: QVQLQESGPGLVKPSDTLSLTCAVSGYSISSSNWWGWIRQPPGKGLEWIGYIYYSGSTYYNPSLKSRVTMSVDTSKNQFSLKLSSVTAVDTAVYYCARTNWGAEYFQHWGQGTLVTVSS
VL: not shown
As for B1, the ECL signal in [1] came out at 2980; in experiment [2], 600; in [3], 613; in experiment [4], 679; in experiment [5] it was 486; in [6] it was 693. For the same molecule, the ECL signal in [7] is 4720; in [8], 647; in [9], 581; in experiment [10], 740; in experiment [11], 535; in experiment [12] it was 636.

B2: Fab VH3-23_IGHD2-21*01>3_IGHJ6*01 H100E/S108P/Y113G (EPG) Y109P & V2-13_IGLJ2*01 (Fab, V domains shown)
VH: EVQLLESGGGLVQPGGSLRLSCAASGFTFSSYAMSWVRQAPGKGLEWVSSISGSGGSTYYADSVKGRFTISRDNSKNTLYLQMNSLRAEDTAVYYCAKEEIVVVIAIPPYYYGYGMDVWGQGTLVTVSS
VL: SSELTQDPAVSVALGQTVRITCQGDSLRSYYASWYQQKPGQAPVLVIYGKNNRPSGIPDRFSGSSSGNTASLTITGAQAEDEADYYCNSRDSSGNHLVVFGGGTKLTVL
notes: Fab; NNK mutant of the EPG heavy chain; CH1 (tags) and lambda CL come from the vectors
As for B2, the “ECL signal ratio (column head gives no unit)” value in [13] worked out at 1.5; in experiment [14], 1.6; in [15], 1.8; in experiment [16], 1.1; in [17], 1.1; in experiment [18], 1.4. In addition, the “ECL signal ratio (column head gives no unit)” value in [19] was determined as 1.9; in experiment [20], 1.8; in [21], 1.6.

B3: Fab VH3-23_IGHD2-21*01>3_IGHJ6*01 H100E/S108P/Y113G Y110E & V2-13_IGLJ2*01 (Fab, V domains shown)
VH: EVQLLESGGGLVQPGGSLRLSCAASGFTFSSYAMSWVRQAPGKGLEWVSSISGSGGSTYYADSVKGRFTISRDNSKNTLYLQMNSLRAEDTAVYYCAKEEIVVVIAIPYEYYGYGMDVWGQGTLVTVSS
VL: B2 VL
notes: Tested as Fab made in E. coli: VH joined to CH1 (His and Flag tags), VL joined to lambda CL; also called EPG Y110E
For the molecule B3, the “ECL multispot signal (ratio to blank; column not labelled)” value came out at 1.7 in experiment [22]; 1.6 in [23]; 1.8 in experiment [24]; 1.5 in [25]; 1.3 in [26]; 1.4 in experiment [27]. Also, the “ECL multispot signal (ratio to blank; column not labelled)” value in experiment [28] was 2; in [29], 2.2; in experiment [30], 1.8.

(Values after patent US20120316071A1 (published 2012).)
